Reference: the nanobody polyreactivity screen of Harvey et al. (2022)

Test: yeast display, Sf9 membrane polyspecificity reagent, FACS + sequencing; frameworks hold sequencing errors
In short: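 Galactose-induced (36–48 hours) yeast carrying a synthetic nanobody display library were exposed to 10% biotinylated, detergent-solubilized Sf9 membrane reagent at 4 °C for 1 hour. FACS followed streptavidin microbead enrichment, using low and high (top ~1%) gates for expression (anti-HA) and reagent binding (streptavidin). Colony PCR, MiSeq 2 × 250 sequencing and CDR-length filtering followed. Labels for polyreactivity reflect the gate of origin.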

| Sequence | polyreactivity (PSR sort gate) |
| --- | --- |
| QVQLVESGGGLVQAGGSLRLSCAASGYTFYVYTMGWYRQAPGKERELVAAISGSGTSTYYADSVKGRFTISRDNAKNTVYLQMNSLKPEDTAVYYCAAEDYSSDVYSYDYWGQGTQVTVSS | low polyreactivity |
| QVQLVESGGGLVQAGGSLRLSCAASGYTFYWNVMGWYRQAPGKERELVAVIDWSGGSTHYADSVKGRFTISRDNAKNTVYLQMNSLKPEDTAVYYCAAVDIRLEWDYWFQPTYDYWGQGTQVTVSS | low polyreactivity |
| QVQLVESGGGLVQAGGSLRLSCAASGYTFYYNAMGWYIQAPGKERELVARISRSGGSTYADSVKGRFTISRDNAKNTVYLQMNSLKPEDTAVYYCNADAYGTPEFTSYAVRYDYWGQGTQVTVSS | low polyreactivity |
| QVQLVESGGGLVQAGGSLRLSCAASGYTIIQYAMGWYRQAPGKERELVAGMTWSGGSKYADSVKGRFTISRDNAKNTVYLQMNSLNPEDTAVYYCAAVPYSYTYVYLRHYDYWGQGTQVSVSS | low polyreactivity |
| QVQLVESGGGLVQAGGSLRLSCAASGYTIRYYAMGSYRQAPGKERELVADISYSGGRTYYADSVKGRITISRDNAKNTVDLLMNSLKPEDSAVYYSNARGGRRAYNYGYWGQGTQVTVSS | high polyreactivity |
| QVQLVESGGGLVQAGGSLRLSCAASGYTIWHYAMGWYRQAPGKEREFVATISSGGSTYYADSVKGRFTISRDNAKNTVYLQMNSLKPEDTAVYYCAVDIWGGEGYDSWGQGTQVTVSS | low polyreactivity |
| QVQLVESGGGLVQAGGSLRLSCAASGYTIYVNAMGRYRQAPAKQRQLVASNRRDSTYYADSVKGRFTISRDNAKNTVYLQMNSLKPEDSAVYYCAVDWYPWLYDGRTYEYWGQGTQVTVSS | low polyreactivity |
| QVQLVESGGGLVQAGGSLRLSCAASGYTLNIYGMGWYRQATGKERELVAAISRGGSTNYADSVKGRFTISRDNAKNTVYLQMNSLKPEDTAVYYCAKVYNYRSVRYYYWGQGTQVTVSS | high polyreactivity |
| QVQLVESGGGLVQAGGSLRLSCAASGYTLRIYAMGWYRQAPGKERELVAAISRSGGRTFYADSVKGRFTISRDNAKNTVYLQMISLTPEDTAVFYCAAVSAYYYRRTYEYWGQGTQVTVSS | high polyreactivity |
| QVQLVESGGGLVQAGGSLRLSCAASGYTLYLNAMGWYRQAPGKERELFARISGGGSTNYADSVKGRFTISRDNAKNTVYLQMNSLKPEDTAVYYCAATIFAYGYRSFKLDYWGQGTQVTVSS | low polyreactivity |
| QVQLVESGGGLVQAGGSLRLSCAASISSSNAMGWYRQAPGKERELVAAIRWSGTSTYYADSVKGRFTISRDNANNTVYLQMNSLKPEETAVYYCAARYVRVGYDYWGQGTQVTVSS | high polyreactivity |
| QVQLVESGGGLVQAGGSLRLSCAASMGWYRQAPGKERELVAITRTTRTYYADSVKGRFTISRDNAKNTVYLQMNSLKPEDTAVYYCAAPNGPSPYWYNYWGQGTQVTVSS | low polyreactivity |
| QVQLVESGGGLVQAGGSLRLSCAASRFIFGAYTMGWYRQAPGKERELVAAISWSGDSTYYADSVKGRFTISRDNAKNTVYLQMNSLKPEDTAVYYCAAVWYWSGFDYWGQGTQVTVSS | high polyreactivity |
| QVQLVESGGGLVQAGGSLRLSCAASRFIFSFYVMGWYRQAPAKETELVAAISTSGASTYYADSVKGRFTITRDNAKKTVYLQMNSLKPEDTAVYYCNVGYRYGGYNYWGQGTQVTVSW | high polyreactivity |
| QVQLVESGGGLVQAGGSLRLSCAASRFIFSSYVMGRYRQAPGKERELVAASRSGGSTNYADSVKGRFTISRDNAKNTVYLQMNSLKPEDTAVYYCAARGRLGQGYYYWGQGTLVTVSS | low polyreactivity |
| QVQLVESGGGLVQAGGSLRLSCAASRFIFWPYAMGWYRPAPGKERELVAAITTGGSTNYADSVKGRFTISRDNAKNTVYFQMNSLKPEDTAVYYCAKGYYFGYYEFVYWGQGTQVTVSS | high polyreactivity |
| QVQLVESGGGLVQAGGSLRLSCAASRFTFSGYAMGWYRQAPGKERELVATISSSGSTYADSVKGRFTISRDNAKNTVYLQMNSLKPEDTAVYYCAKRVPFFDYWGQGTQVTVSS | low polyreactivity |
| QVQLVESGGGLVQAGGSLRLSCAASRFTFVHYAMGWYRQAPGKERELVAAISRSGGSTYCADSVKGRFTISRDNAKNTVYLQMNSLKPEDTAVYYCAASRGSYEVVYWGQGTQVTVSS | high polyreactivity |
| QVQLVESGGGLVQAGGSLRLSCAASRFYTMGWYIPAPGKERELVAAISWSGGDTYYADSVKGRYTISRDNAKNTVYLQMNSLKQEDTAVYYCPKKTIGSYVHEPYYYWGQGNQVTVSS | low polyreactivity |
| QVQLVESGGGLVQAGGSLRLSCAASRIIFWFYAMGWYRQAPGKERELVAAISGDGDSTYYADSVKGRFTISRDNAKNTVYLQMNSLIPEDTAVYYCAAEWDPVFATDEDDYWGQGTQVTVSS | low polyreactivity |
| QVQLVESGGGLVQAGGSLRLSCAASRRIFDVNSMGWYRQAPGKERELVAAISSGGNTKYADSVKGRFTISRDNAKNSVYLQMNSLKPEDTAVYYCIADGKAAGDYDYWGQGTQVTVSS | low polyreactivity |
| QVQLVESGGGLVQAGGSLRLSCAASRRILRVYAMGWYRQAPGKERELVASISSGGSTNYADSVKGRFTISRDNAKNTVYFQMKSLKPEDTAVYYCNRRWVHTYDYWGQGTQVTVSS | high polyreactivity |

| Sequence | polyreactivity (PSR sort gate) |
| --- | --- |
| QVQLVESGGGLVQAGGSLRLSCAASRSIFRGYAMGWYRQAPVKETELVAAITQRAGSTYYADSVKGRFTISRDNAKNTVYLQMISLKPEDTAVYYCAADFYYAYYWGQGTQVTVSS | low polyreactivity |
| QVQLVESGGGLVQAGGSLRLSCAASRSTSPAYAMGWYRQAPGKERELVAVITGSGASTYYADSVKGRFTISRDNAKNTVYLQMNSLKPEDTAVYYCAADVGFGVVFYDYWGQGTQVTVSS | low polyreactivity |
| QVQLVESGGGLVQAGGSLRLSCAASRSTSYDYAMGWYRQAPGKERELVAAISGSSSTTYYADSVKGRFTISRDNAKNTVSLQMNSLKPEDTAVYYCNAVTTSGSGYGYWGQGTQVTVSS | low polyreactivity |
| QVQLVESGGGLVQAGGSLRLSCAASRYTFTLYAMGWYRKAPGKEWELLAAISRSGGSTYYADSVKGRFTISRDNAKITVYLQMNSLKPEDTAVYYCAADKYFAWGYPSGLWYDYWGQGTQVTVSS | high polyreactivity |
| QVQLVESGGGLVQAGGSLRLSCAASVFTFTHYAMGWYRQSAGKERELVAAISTSGVSTYYSDSVKGRFTISRDNAKNTVYLQMNSLKPEDTAVYYCAARRDGWFQWGYYYWGQGTQVTVSS | low polyreactivity |
| QVQLVESGGGLVQAGGSLRLSCAASVFTFTRYVMGWYRQAPVKERELVAAISGSGGSTNYADSVKGRFTISRDNAKNTVYLQMNSLKPEDTVVYYCAARFVGSRYRFDYWGQRTQVTVSS | high polyreactivity |
| QVQLVESGGGLVQAGGSLRLSCAASVFTIPRYAMGWYRQAPGKETELFAAITSGGSTYYADSVKGRFTISRDNAKNTVYLQMNSLKPEDTAVYYWASRAVWSSWGSRYDSWGHGTQVTVSS | high polyreactivity |
| QVQLVESGGGLVQAGGSLRLSCAASVIIFYPYAMGWSRQAPGKEMELVAAITARSANTYYADSVKGRFTISRDNAKNTVYLQMNSLKPEDTAVYYCAAAIYSYRTPYYYWGQGTQVTVSS | high polyreactivity |
| QVQLVESGGGLVQAGGSLRLSCAASVITSPYAMGWYRQAPGKERELVAAISWSGSSTYYADSVKGRFTISRDNAKNTVYLQINSLKPEDTAVYYCATLVSDSRSRRFGYEYWGQGSQVTVSS | high polyreactivity |
| QVQLVESGGGLVQAGGSLRLSCAASVLTFYEYAMGWYRQAPGKERELVASISGRAASTDYADSVKGRFTISRDNAKNTVYLQMNSLKPEDTAVYYCAVGVVGDIDTDGYWGQGTQVTVSS | low polyreactivity |
| QVQLVESGGGLVQAGGSLRLSCAASVNIFESYGMGWYRQAPGKERELVATINTSSGSTYYADSVKGRFTISRDNAKNTVYLQMNSLKPEDTAVYYCSAEWYPYPWGYGYSGQGTQVTVSS | low polyreactivity |
| QVQLVESGGGLVQAGGSLRLSCAASVRIFAKYAMGWYRQAPGKERELVAAIRWRGGNTYYADSVKGRFTISRDNAKNTVYLQMNSLKPEDTAVYYCAAGTWLGRGYIGQVESWGQGTQVTVSS | high polyreactivity |
| QVQLVESGGGLVQAGGSLRLSCAASVRIFGYARGWYRQAPGKERELVAAITSSGGRTYYADSVKGLFTISRDNAKNTVYLQMNSLKPEDTAVYYCAKDASVSYSTNFRYYYWGQGTQVTVSS | high polyreactivity |
| QVQLVESGGGLVQAGGSLRLSCAASVRIFLWYAMGWYRQAPGKERELVAAITKSAGTTYYADSVKGRFTISRDNAKNTVYLQMNSLKPEDTAVYYCGAYYWLYAHWRFGNYWGQGTQVTVSS | low polyreactivity |
| QVQLVESGGGLVQAGGSLRLSCAASVRTFKYYAMGWYRQAPGKERELVASISRGGGSTYYADSVKGRFTISRDNAKNTVYLQMNSLKPDDTAVYYCAAYLRTRYIYCGQGTQVTVSS | high polyreactivity |
| QVQLVESGGGLVQAGGSLRLSCAASVRTFLYNAMGWYRQAPGKERELVASITTSGGSTYYADSVKGRFTISRDNAKNTVYLQMNSLKPEDTAVYYCAAGLPKWYDYGRLVKYNYWGQGTQVTVSS | low polyreactivity |
| QVQLVESGGGLVQAGGSLRLSCAASVRTFYFYTMGWYRQSPGKERELVATIRWSAGSTYYADSVKGRFTISRDNAKNTVYLQMNSLKPEDTAVYYCNADPFVYSSWQYGYWGQGTQVTVSS | high polyreactivity |
| QVQLVESGGGLVQAGGSLRLSCAASVRTQPRYAMGRYRQAPGKERDLVAAISRSGGSTHYADSVKGRFTISRDNAKNTVYFQMNSLKPEDTAVYYCATQRYPYRFYAFQYYYWGQGTQVTVSS | high polyreactivity |
| QVQLVESGGGLVQAGGSLRLSCAASVSIFDLYAMRWYIQAPGKERELVAAISWSDSRTYYADSVKGRFTISRDNATNTVYLQKNSLKPEDTAVYYCAADYRYPDNYGGYDYWGQGTQLTVSS | low polyreactivity |
| QVQLVESGGGLVQAGGSLRLSCAASVSTFSVYAMGWYRQAPGKERELVADISENGGSTYYADSVKGLFTISRDNAKNTVYLQMNSLKPEHTAVYYCAALYHSTSHTYSYWGQGTQVTVSS | low polyreactivity |
| QVQLVESGGGLVQAGGSLRLSCAATGFTFIPYAMGWYRQAPGKERELVAGITIGGRTNNADSVKGRFTISRDNAKNTVYLQMNSLKPEDTAVYYCNAGVYLYVTSKYWYYYWGQGTQVTVSS | high polyreactivity |
